Measured values taken from paper PMC10239968, “[^18F]AlF-NOTA-ADH-1: A new PET molecular radiotracer for imaging of N-cadherin-positive tumors” (Frontiers in Oncology, 2023).
Where two headings read alike, the source gives them in different places.

What was measured:
in vivo = test: in vivo; design: species or system BALB/c nu/nu mice; conditions: female, BALB/c nu/nu, mouse, in vivo, iv, 0.74 MBq (20 uCi) per mouse, total radioactivity
Method: (§1) All animal experiments were performed in accordance with and approved by the Institutional Animal Care and Use Committee guidelines of the First Affiliated Hospital of Zhejiang University School of Medicine. BALB/c nu/nu mice (female, 20 ± 3 g, 4- to 6-week-old; Department of Laboratory Animal Science, Zhejiang University) were used in this study. The SW480 and BxPC3 xenografts were generated, and 5×10^6 tumor cells were subcutaneously injected into the flanks of female athymic nude mice. The PDX-bearing mouse models were established as follows. Pancreatic cancer (diagnosed as pancreatic ductal adenocarcinoma) tissues were obtained from the surgery of a patient. Written informed consent was obtained from the patient, and the research protocol was approved by the Clinical Research Ethics Committee of the First Affiliated Hospital of Zhejiang University School of Medicine. The sample was sectioned into about 1mm^3 pieces, and the tumor tissues were subcutaneously implanted into BALB/c nu/nu mice flanks. Mice were allowed free access to sterile water and food and were kept under strict disease-free conditions with controlled temperature (~25°C), humidity (50-70%), and circadian rhythms (12-hour light/dark cycles). All necessary procedures were carried out to minimize discomfort and avoid the waste of animals. The length and width of the tumor were measured every other day. Biodistribution studies and positron emission tomography in mice were performed after the tumor volume reached 150 to 200 mm^3.
(§2) The BALB/c nude mice were randomized into different tumor models (SW480, BxPC3, and pancreatic PDX), including 5 mice per group. Each nude mouse was injected with 0.74MBq (20μCi) [^18F]AlF-NOTA-ADH-1 through the caudal vein. Blood was collected from the orbit, and the mice were dissected to collect the brain, heart, lung, liver, liver, spleen, stomach, intestine, muscle, bone and others at 30 min, […], 60min, 90min and 120min after injection. In the blocked group, the study was performed with a saturating dose of ADH-1 (20 mg/kg of mouse body weight) intravenously administered 60min before the intravenous injection of [^18F]AlF-NOTA-ADH-1 in the pancreatic PDX model and SW480 xenograft model. The mice in the tumor xenograft model were sacrificed 1h after [^18F]AlF-NOTA-ADH-1 injection. The nude mice were dissected, and tumor tissues and related tissues (blood, brain, heart, lung, liver, spleen, kidney, stomach, intestine, muscle and bone) were weighed, and their radioactivity was measured by γ-counter. The radioactivity results were recorded as % ID/g.

[1] = test system: pancreatic PDX tumor xenografts; test: in vivo; design: species or system BALB/c nu/nu mice; conditions: PDX xenograft nude mice, n=5, mean±SD
Method: as §1, §2

SW480 tumor xenografts = format: in vivo, BALB/c nu/nu mice; conditions: SW480 xenograft nude mice, n=5, mean±SD
Method: as §1, §2

[2] = blocking (ADH-1 20 mg/kg i.v. 60min before), 60min p.i.

CC(=O)N[C@H]1CSSC[C@@H](C(=O)NCCNC(=O)CN2CCN(CC(=O)O)CCN(CC(=O)O)CC2)NC(=O)[C@H](C(C)C)NC(=O)[C@H](C)NC(=O)[C@H](Cc2c[nH]cn2)NC1=O [[^18F]AlF-NOTA-ADH-1]
tissue uptake at 0.5 h (in vivo; Blood uptake): 0.69 ± 0.22 %ID/g
tissue uptake at 1 h (in vivo; Blood uptake): 0.4 ± 0.18 %ID/g
tissue uptake at 1.5 h (in vivo; Blood uptake): 0.39 ± 0.11 %ID/g
tissue uptake at 2 h (in vivo; Blood uptake): 0.41 ± 0.07 %ID/g
tissue uptake at 0.5 h (in vivo; Bone uptake): 1.74 ± 0.81 %ID/g
tissue uptake at 1 h (in vivo; Bone uptake): 2.29 ± 0.96 %ID/g
tissue uptake at 1.5 h (in vivo; Bone uptake): 1.65 ± 1.3 %ID/g
tissue uptake at 2 h (in vivo; Bone uptake): 0.74 ± 0.35 %ID/g
tissue uptake at 0.5 h (in vivo; Brain uptake): 0.62 ± 0.14 %ID/g
tissue uptake at 1 h (in vivo; Brain uptake): 0.99 ± 0.47 %ID/g
tissue uptake at 1.5 h (in vivo; Brain uptake): 0.63 ± 0.18 %ID/g
tissue uptake at 2 h (in vivo; Brain uptake): 0.51 ± 0.27 %ID/g
tissue uptake at 0.5 h (in vivo; Heart uptake): 2.54 ± 0.97 %ID/g
tissue uptake at 1 h (in vivo; Heart uptake): 0.96 ± 0.17 %ID/g
tissue uptake at 1.5 h (in vivo; Heart uptake): 0.95 ± 0.25 %ID/g
tissue uptake at 2 h (in vivo; Heart uptake): 0.81 ± 0.28 %ID/g
tissue uptake at 0.5 h (in vivo; Intestines uptake): 3.82 ± 0.12 %ID/g
tissue uptake at 1 h (in vivo; Intestines uptake): 2.14 ± 0.04 %ID/g
tissue uptake at 1.5 h (in vivo; Intestines uptake): 3.93 ± 2.67 %ID/g
tissue uptake at 2 h (in vivo; Intestines uptake): 2.53 ± 2 %ID/g
tissue uptake at 1 h (in vivo; Muscle uptake): 1.56 ± 0.07 %ID/g
tissue uptake at 1.5 h (in vivo; Muscle uptake): 2.03 ± 0.05 %ID/g
tissue uptake at 2 h (in vivo; Muscle uptake): 1.18 ± 0.6 %ID/g
tissue uptake at 0.5 h (in vivo; Skin uptake): 0.11 ± 0.04 %ID/g
tissue uptake at 1 h (in vivo; Skin uptake): 0.95 ± 0.46 %ID/g
tissue uptake at 1.5 h (in vivo; Skin uptake): 1.51 ± 0.02 %ID/g
tissue uptake at 2 h (in vivo; Skin uptake): 1.56 ± 0.66 %ID/g
tissue uptake at 0.5 h (in vivo; Stomach uptake): 3.23 ± 1.69 %ID/g
tissue uptake at 1 h (in vivo; Stomach uptake): 3.4 ± 0.12 %ID/g
tissue uptake at 1.5 h (in vivo; Stomach uptake): 6.16 ± 1.58 %ID/g
tissue uptake at 2 h (in vivo; Stomach uptake): 1.6 ± 1.04 %ID/g
T/Blood ratio [1, 2]: 9.39± 0.10
T/Muscle ratio [1, 2]: 2.12±0.06
Tumor uptake [1, 2]: 3.75±0.07 %ID/g
T/Blood ratio ([1]; non-blocking, 30min p.i.): 10.72± 1.02
T/Muscle ratio ([1]; non-blocking, 30min p.i.): 5.69±0.72
Tumor uptake ([1]; non-blocking, 30min p.i.): 8.04±1.82 %ID/g
T/Blood ratio ([1]; non-blocking, 60min p.i.): 19.21± 2.20
T/Muscle ratio ([1]; non-blocking, 60min p.i.): 8.70±2.68
Tumor uptake ([1]; non-blocking, 60min p.i.): 10.76±2.16 %ID/g
T/Blood ratio ([1]; non-blocking, 90min p.i.): 13.54± 0.35
T/Muscle ratio ([1]; non-blocking, 90min p.i.): 4.15±1.86
Tumor uptake ([1]; non-blocking, 90min p.i.): 7.18±0.53 %ID/g
T/Blood ratio ([1]; non-blocking, 120min p.i.): 10.27±1.36
T/Muscle ratio ([1]; non-blocking, 120min p.i.): 3.97±1.56
Tumor uptake ([1]; non-blocking, 120min p.i.): 4.93±1.65 %ID/g
T/Blood ratio (SW480 tumor xenografts; [2]): 3.96±0.33
T/Muscle ratio (SW480 tumor xenografts; [2]): 1.03±0.56
Tumor uptake (SW480 tumor xenografts; [2]): 1.07±0.57 %ID/g
T/Blood ratio (SW480 tumor xenografts; non-blocking, 30min p.i.): 5.77±0.13
T/Muscle ratio (SW480 tumor xenografts; non-blocking, 30min p.i.): 1.75±0.47
Tumor uptake (SW480 tumor xenografts; non-blocking, 30min p.i.): 1.73±0.11 %ID/g
T/Blood ratio (SW480 tumor xenografts; non-blocking, 60min p.i.): 7.42±1.01
T/Muscle ratio (SW480 tumor xenografts; non-blocking, 60min p.i.): 1.91±0.69
Tumor uptake (SW480 tumor xenografts; non-blocking, 60min p.i.): 2.08±1.64 %ID/g
T/Blood ratio (SW480 tumor xenografts; non-blocking, 90min p.i.): 9.6±0.76
T/Muscle ratio (SW480 tumor xenografts; non-blocking, 90min p.i.): 1.23±0.92
Tumor uptake (SW480 tumor xenografts; non-blocking, 90min p.i.): 0.96±0.15 %ID/g
T/Blood ratio (SW480 tumor xenografts; non-blocking, 120min p.i.): 6.08±0.35
T/Muscle ratio (SW480 tumor xenografts; non-blocking, 120min p.i.): 0.86±0.23
Tumor uptake (SW480 tumor xenografts; non-blocking, 120min p.i.): 0.73±0.67 %ID/g
